Results on one molecule are retold here after article PMC5874916 (2018).

Broadly, the Kd is the concentration at which binding is half-saturated. High values mean a looser complex, low ones a tighter complex. What is called koff is the rate constant with which the complex falls apart.

For experiment [1], the target named is T1, 6xHis-tagged WT RTp51/p66 heterodimer purified from E. coli (HIV-1, UniProt P04585 588-1027). Briefly: BLI.
Experiment [2] deals with T1, 6xHis-tagged WT RTp51/p66 heterodimer …. Kind of experiment: BLI. This is another data set of the same source. Background: In BLI a coated tip is dipped into the sample, and binding shifts an interference pattern.

B1: purified recombinant eEF1A1 (OriGene), biotinylated (natural protein)
chain: MGKEKTHINIVVIGHVDSGKSTTTGHLIYKCGGIDKRTIEKFEKEAAEMGKGSFKYAWVLDKLKAERERGITIDISLWKFETSKYYVTIIDAPGHRDFIKNMITGTSQADCAVLIVAAGVGEFEAGISKNGQTREHALLAYTLGVKQLIVGVNKMDSTEPPYSQKRYEEIVKEVSTYIKKIGYNPDTVAFVPISGWNGDNMLEPSANMPWFKGWKVTRKDGNASGTTLLEALDCILPPTRPTDKPLRLPLQDVYKIGGIGTVPVGRVETGVLKPGMVVTFAPVNVTTEVKSVEMHHEALSEALPGDNVGFNVKNVSVKDVRRGNVAGDSKNDPPMEAAGFTAQVIILNHPGQISAGYAPVLDCHTAHIACKFAELKEKIDRRSGKKLEDGPKFLKSGDAAIVDMVPGKPMCVESFSDYPPLGRFAVRDMRQTVAVGVIKAVDKKAAGAGKVTKSAQKAQKAK
modifications: biotin (EZ-Link-sulfo-NHS-biotin)
B1 displayed a Kd in experiment [1] of 3.48 nM. Also, the koff in experiment [2] is 0.000475 s⁻¹.
